Biological target: CCR1 on HEK293 cells / HEK293 membranes stably expressing CCR1 (UniProt P32246)
Test: cell-based or functional assay

Chain of CCR1 on HEK293 cells / HEK293 membranes stably expressing CCR1 (P32246 whole entry): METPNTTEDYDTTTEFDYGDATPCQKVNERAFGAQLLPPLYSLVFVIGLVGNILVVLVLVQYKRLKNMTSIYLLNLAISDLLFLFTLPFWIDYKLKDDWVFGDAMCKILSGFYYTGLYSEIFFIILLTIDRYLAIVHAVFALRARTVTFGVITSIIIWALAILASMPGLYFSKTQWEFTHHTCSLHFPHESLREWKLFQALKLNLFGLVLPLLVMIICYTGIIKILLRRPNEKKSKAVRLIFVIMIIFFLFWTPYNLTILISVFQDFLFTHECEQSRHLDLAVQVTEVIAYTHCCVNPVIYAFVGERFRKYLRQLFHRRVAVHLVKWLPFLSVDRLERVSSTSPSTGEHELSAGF

## CCL14-fluorescein (CCL14 9-74 with added C-terminal cysteine labeled with fluorescein-5-maleimide) (from UniProt Q16627 28-93) (ligand)
  calcium flux (dose response curve): 2 nM

— patent publication US20140045211A1
